From patent US20040186051A1 (Genentech, published 2004)
Values belong to the binder of their own block, whether it stands above or below them.

Target: T1, DR4 receptor (human, UniProt O00220 24-239, limits assumed)
T1 construct: The construct used in the ELISA is not described
Test: receptor binding ELISA

T1 sequence (O00220 24-239 H141R/R209T limits assumed): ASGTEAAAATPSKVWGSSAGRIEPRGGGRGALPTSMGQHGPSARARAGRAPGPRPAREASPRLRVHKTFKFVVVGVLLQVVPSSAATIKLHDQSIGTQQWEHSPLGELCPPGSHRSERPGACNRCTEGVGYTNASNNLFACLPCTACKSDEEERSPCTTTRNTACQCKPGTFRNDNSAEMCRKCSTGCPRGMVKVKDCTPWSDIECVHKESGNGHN

EC50: 0.0045 µg/mL
B1: PEG-R170C-Apo2L.0(32176-78) (ligand)
chain: VRERGPQRVAAHITGTRGRSNTLSSPNSKNEKALGRKINSWESSRSGHSFLSNLHLCNGELVIHEKGFYYIYSQTYFRFQEEIKENTKNDKQMVQYIYKYTSYPDPILLMKSARNSCWSKDAEYGLYSIYQGGIFELKENDRIFVSVTNEHLIDMDHEASFFGAFLVG
modifications: Cys170 either carries methoxy-PEG-maleimide, MW 2,000 D, or is in a disulfide bond with Cys170 of another trimer; rest blocked with iodoacetamide
notes: the number of chains is therefore not one value; also called partially PEGylated and disulfide crosslinked R170C-Apo2L.0; PEG-R170C-Apo2L.0 lot 32176-78

EC50: 0.0422 µg/mL
B2: PEG-R170C-Apo2L.0 (32176-87C) (ligand)
chain: B1 chain
modifications: methoxy-PEG-maleimide, MW 2,000 D, on Cys170 (one PEG per monomer); residual unpegylated Cys170 carboxyamidomethylated with iodoacetamide
notes: also called PEG-2K-R170C-Apo2L.0; R170C-PEG-2K
